First the molecules themselves.
T1: C-terminal HOOK3 (residues 451–718) (human, UniProt Q86VS8 451-718)
T1 construct: also called H^C; source: Sf9, co-expressed with FTS and FHIP1B, purified (Strep-Tactin, PreScission, SEC); not shown: Strep II, N-terminal, cleaved
T1 sequence (looked up): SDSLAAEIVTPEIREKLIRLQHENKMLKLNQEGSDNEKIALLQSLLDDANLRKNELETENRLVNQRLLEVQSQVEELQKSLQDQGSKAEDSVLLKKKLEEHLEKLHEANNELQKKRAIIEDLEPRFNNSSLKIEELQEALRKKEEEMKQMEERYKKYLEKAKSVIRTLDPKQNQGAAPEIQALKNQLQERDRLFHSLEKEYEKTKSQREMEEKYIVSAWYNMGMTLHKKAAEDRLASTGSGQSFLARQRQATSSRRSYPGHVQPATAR

T2: full-length HOOK3 (of FHF co-expression) (human, UniProt Q86VS8 1-718)
T2 construct: HOOK3, human, full length; gene codon optimized for Sf9; Captured on Strep-Tactin by the tag, then released with PreScission protease before gel filtration; source: Sf9, co-expressed with FTS and FHIP1B or FHIP2A, purified (Strep-Tactin, PreScission, SEC); not shown: Strep II, N-terminal, cleaved
T2 sequence (looked up): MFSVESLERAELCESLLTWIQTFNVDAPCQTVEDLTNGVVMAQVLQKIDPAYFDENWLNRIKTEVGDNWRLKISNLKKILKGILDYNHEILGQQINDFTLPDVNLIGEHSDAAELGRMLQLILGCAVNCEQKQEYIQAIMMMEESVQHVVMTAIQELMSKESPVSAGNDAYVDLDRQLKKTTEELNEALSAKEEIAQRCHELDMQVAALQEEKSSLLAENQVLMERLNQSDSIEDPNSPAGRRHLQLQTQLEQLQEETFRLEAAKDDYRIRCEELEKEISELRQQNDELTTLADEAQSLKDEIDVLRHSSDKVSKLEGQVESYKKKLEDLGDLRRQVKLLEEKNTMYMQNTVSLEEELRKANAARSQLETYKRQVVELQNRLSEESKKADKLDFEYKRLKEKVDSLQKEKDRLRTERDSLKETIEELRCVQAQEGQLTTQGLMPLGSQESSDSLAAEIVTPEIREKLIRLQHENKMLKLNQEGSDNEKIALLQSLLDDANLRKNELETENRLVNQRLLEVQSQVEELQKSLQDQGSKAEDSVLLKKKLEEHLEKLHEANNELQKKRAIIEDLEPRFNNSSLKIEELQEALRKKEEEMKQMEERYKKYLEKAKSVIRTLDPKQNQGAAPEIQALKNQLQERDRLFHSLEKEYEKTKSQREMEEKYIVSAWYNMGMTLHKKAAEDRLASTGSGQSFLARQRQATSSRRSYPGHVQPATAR

T3: KIF1C–GFP (full-length KIF1C fused to a C-terminal eGFP) (human, UniProt O43896 1-1103)
T3 construct: kinesin-3 KIF1C, human, full length (residues up to 1103 are named); also called KFL; KFL–GFP; not shown: eGFP, C-terminal, kept
T3 sequence (looked up): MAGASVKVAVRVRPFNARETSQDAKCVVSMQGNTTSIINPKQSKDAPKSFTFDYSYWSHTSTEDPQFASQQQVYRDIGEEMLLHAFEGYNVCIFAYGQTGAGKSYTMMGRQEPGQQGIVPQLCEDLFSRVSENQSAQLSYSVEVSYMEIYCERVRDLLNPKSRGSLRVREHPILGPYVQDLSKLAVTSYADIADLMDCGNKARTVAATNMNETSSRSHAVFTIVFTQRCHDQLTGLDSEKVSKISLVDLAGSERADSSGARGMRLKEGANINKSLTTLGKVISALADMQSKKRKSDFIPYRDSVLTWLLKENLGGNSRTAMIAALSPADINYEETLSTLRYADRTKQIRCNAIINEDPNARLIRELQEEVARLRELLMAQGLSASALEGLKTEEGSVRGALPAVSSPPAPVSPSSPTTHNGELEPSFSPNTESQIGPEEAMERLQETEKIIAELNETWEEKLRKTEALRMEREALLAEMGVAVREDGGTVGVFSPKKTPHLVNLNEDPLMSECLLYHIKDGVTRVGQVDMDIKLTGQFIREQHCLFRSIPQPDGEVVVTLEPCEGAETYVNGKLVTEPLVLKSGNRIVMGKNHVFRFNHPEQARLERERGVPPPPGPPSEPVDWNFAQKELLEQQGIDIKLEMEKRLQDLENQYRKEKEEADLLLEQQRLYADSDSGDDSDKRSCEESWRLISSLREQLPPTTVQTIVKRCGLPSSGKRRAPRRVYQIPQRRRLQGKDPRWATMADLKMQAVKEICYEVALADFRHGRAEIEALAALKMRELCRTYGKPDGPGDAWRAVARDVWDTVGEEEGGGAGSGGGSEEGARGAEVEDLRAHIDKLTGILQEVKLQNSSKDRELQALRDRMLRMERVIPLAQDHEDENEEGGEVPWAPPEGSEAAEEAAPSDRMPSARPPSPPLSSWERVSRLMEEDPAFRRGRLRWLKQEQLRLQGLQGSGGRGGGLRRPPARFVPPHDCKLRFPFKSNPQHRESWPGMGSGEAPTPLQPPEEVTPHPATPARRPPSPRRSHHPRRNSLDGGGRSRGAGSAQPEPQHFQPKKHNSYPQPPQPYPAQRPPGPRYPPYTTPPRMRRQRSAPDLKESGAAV

B1: GST-KIF1C stalk 674-922 (domain or fragment, human, UniProt O43896 674-922, looked up)
chain: SDSGDDSDKRSCEESWRLISSLREQLPPTTVQTIVKRCGLPSSGKRRAPRRVYQIPQRRRLQGKDPRWATMADLKMQAVKEICYEVALADFRHGRAEIEALAALKMRELCRTYGKPDGPGDAWRAVARDVWDTVGEEEGGGAGSGGGSEEGARGAEVEDLRAHIDKLTGILQEVKLQNSSKDRELQALRDRMLRMERVIPLAQDHEDENEEGGEVPWAPPEGSEAAEEAAPSDRMPSARPPSPPLSSWE
notes: KIF1C, human, residues 674-922; Based on the original GST–KIF1C stalk plasmid; also called KIF1CS^2; KIF1CS^674–922; source: E. coli SoluBL21, purified (Ni-NTA, SEC); not shown: GST, N-terminal, kept
B2: GST–KIF1C stalk (residues 642–922) (domain or fragment, human, UniProt O43896 642-922, looked up)
chain: EMEKRLQDLENQYRKEKEEADLLLEQQRLYADSDSGDDSDKRSCEESWRLISSLREQLPPTTVQTIVKRCGLPSSGKRRAPRRVYQIPQRRRLQGKDPRWATMADLKMQAVKEICYEVALADFRHGRAEIEALAALKMRELCRTYGKPDGPGDAWRAVARDVWDTVGEEEGGGAGSGGGSEEGARGAEVEDLRAHIDKLTGILQEVKLQNSSKDRELQALRDRMLRMERVIPLAQDHEDENEEGGEVPWAPPEGSEAAEEAAPSDRMPSARPPSPPLSSWE
notes: KIF1C, human, amino acids 642-922 (CC2, stalk globular domain, CC3); A tandem TEV site lies between GST and KIF1C; also called KS; GST-tagged KIF1C stalk; source: E. coli SoluBL21, purified (Ni-NTA, SEC); not shown: GST, N-terminal, kept
B3: HOOK3-SNAPf labeled with Alexa-647 (natural protein, human, UniProt Q86VS8 1-718, looked up)
chain: T2 sequence (looked up)
modifications: Alexa-647 on the SNAP tag
notes: HOOK3, human, amplified from a human cDNA library from the start codon to the last codon; also called HOOK3-Alexa 647; source: Sf9, purified (Ni-NTA, IgG Sepharose, cut off the beads with TEV protease); not shown: 8xHis, N-terminal, cleaved; ZZ, N-terminal, cleaved; SNAPf, C-terminal, kept
B4: C-terminal HOOK3 fragment (residues 571–718) (domain or fragment, human, UniProt Q86VS8 571-718, looked up)
chain: DLEPRFNNSSLKIEELQEALRKKEEEMKQMEERYKKYLEKAKSVIRTLDPKQNQGAAPEIQALKNQLQERDRLFHSLEKEYEKTKSQREMEEKYIVSAWYNMGMTLHKKAAEDRLASTGSGQSFLARQRQATSSRRSYPGHVQPATAR
notes: gene codon optimized for Sf9; Captured on Strep-Tactin by the tag, then released with PreScission protease before gel filtration; Two copies form the coiled coil in the structure; source: Sf9, co-expressed with FTS and FHIP1B or FHIP2A, purified (Strep-Tactin, PreScission, SEC); not shown: Strep II, N-terminal, cleaved

The target of data set [1] is T1, C-terminal HOOK3 (residues 451–718). Put plainly: cryo-EM structure; FH^451–718F with GST-KIF1C stalk 674–922; 4.8 Å, low resolution at the KIF1C stalk density; no atomic model. To be noted: both partners purified.
The target of data set [2] is T2, full-length HOOK3 (of FHF co-expression). Put plainly: cross-linking; cross-linking mass spectrometry; 10 mM EDC or 5 mM DSSO, room temperature, 60 min; full-length FHF or FH^571-718F with KIF1C stalk 674-922. To be noted: both partners purified.
The target in data set [3] is T4, full-length FTS–HOOK3–FHIP1B complex (human, UniProt Q86VS8 1-718; Q9H8T0 1-292; Q8N612 1-972).
T4 construct: HOOK3, human, full length; FTS, human, full length; FHIP1B, human, full length; SEC-MALS gave ~304 kDa for the full-length complex; also called FHF; full-length FHF; source: Sf9, co-expressed, purified (Strep-Tactin, PreScission, SEC); not shown: Strep II, N-terminal, cleaved; copies: 2 + +
T4 sequence (Q9H8T0 whole entry, chain 2 of 2): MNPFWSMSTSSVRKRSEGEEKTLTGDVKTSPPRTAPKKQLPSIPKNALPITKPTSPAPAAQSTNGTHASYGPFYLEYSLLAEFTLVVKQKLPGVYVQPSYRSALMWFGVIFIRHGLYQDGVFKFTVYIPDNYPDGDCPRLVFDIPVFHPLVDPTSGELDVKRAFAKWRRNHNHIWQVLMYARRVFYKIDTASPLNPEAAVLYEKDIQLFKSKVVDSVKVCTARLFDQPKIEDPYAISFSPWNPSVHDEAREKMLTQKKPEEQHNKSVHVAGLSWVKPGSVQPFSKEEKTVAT
T4 sequence (Q8N612 whole entry, chain 3 of 2): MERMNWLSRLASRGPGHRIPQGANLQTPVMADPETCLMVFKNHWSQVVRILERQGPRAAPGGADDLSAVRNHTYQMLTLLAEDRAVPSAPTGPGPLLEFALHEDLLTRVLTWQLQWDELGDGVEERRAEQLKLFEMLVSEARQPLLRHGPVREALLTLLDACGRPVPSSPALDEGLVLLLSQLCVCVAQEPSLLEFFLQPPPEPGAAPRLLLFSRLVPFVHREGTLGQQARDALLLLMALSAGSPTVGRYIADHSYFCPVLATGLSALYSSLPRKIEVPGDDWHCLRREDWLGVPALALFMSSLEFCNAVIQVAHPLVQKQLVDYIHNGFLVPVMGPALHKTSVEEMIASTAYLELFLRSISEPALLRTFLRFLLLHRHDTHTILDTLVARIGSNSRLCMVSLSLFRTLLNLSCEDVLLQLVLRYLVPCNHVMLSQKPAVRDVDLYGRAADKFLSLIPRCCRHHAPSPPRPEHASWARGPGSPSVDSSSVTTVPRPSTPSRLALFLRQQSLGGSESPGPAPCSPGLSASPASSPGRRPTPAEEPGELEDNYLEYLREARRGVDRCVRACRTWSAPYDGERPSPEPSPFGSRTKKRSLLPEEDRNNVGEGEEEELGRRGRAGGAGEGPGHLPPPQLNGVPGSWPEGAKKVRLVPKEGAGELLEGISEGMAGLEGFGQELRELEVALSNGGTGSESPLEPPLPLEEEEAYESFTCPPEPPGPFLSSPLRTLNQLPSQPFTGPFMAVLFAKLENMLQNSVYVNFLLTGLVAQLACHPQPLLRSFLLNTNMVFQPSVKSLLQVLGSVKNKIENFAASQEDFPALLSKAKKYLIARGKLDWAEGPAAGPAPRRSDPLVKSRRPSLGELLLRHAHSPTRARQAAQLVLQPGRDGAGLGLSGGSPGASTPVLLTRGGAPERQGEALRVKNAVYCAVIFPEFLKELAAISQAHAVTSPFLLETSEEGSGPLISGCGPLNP
Put plainly: mass photometry; full-length FHF with KIF1C stalk, 100 nM in GF150, Refeyn TwoMP. The note with it: both partners purified.

The target of data set [4] is T3, KIF1C–GFP (full-length KIF1C fused to a …). Put plainly: single-molecule TIRF microscopy, co-movement on microtubules; 200 nM TMR–dynein, 200 nM dynactin, 1,600 nM labeled adapter and 180 nM KIF1C-GFP mixed at ~75 mM KCl, on ice 45–60 min, diluted 1:20 or 1:40; biotin-microtubules held on the coverslip; 25 °C. To be noted: both partners purified.
Data set [5] deals with the molecule itself. The data set can be described thus: cryo-EM structure; FTS, FHIP1B and HOOK3 571–718, co-expressed in Sf9 and purified as one complex; 3.2 Å; 0.9 mg/ml with 0.1% CHAPSO or 0.005% Igepal.
The target of the data set “GST-KIF1C stalk 674-922” is B1. Put plainly: cross-linking; cross-linking mass spectrometry; 10 mM EDC or 5 mM DSSO, room temperature, 60 min; full-length FHF or FH^571-718F with KIF1C stalk 674-922. To be noted: both partners purified.

The values below come from publication PMC11996680, “KIF1C activates and extends dynein movement through the FHF cargo adapter” (Nature Structural & Molecular Biology, 2025).

B1: the binding result in data set [1] and in data set [2] was “binds” each time. Consider B2, for which the “stoichiometry N” value in data set [3] was 1 dimeric KIF1C stalk per FHF.

For the molecule B3, the binding result in data set [4] is “binds”. For B4, the binding result (in data set [5]; with GST-KIF1C stalk 674-922) was “binds” throughout.
